The results in this text go back to patent US20040018971A1.

The target of the first experiment is HLA-A*2401 (purified HLA class I molecule) (human). Briefly: competition with 125I-labelled probe peptide for purified HLA, gel filtration.
Conditions: not given
For orientation: In gel filtration, larger molecules generally elute earlier.
Consider VYMIMVKCWMI [HER2/neu peptide, position 951, 11 amino acids], for which the relative binding ratio (IC50 of standard peptide / IC50 of test peptide) was found to be 1.8.

As for WMALESIL [HER2/neu peptide, position 888, 8 amino acids], the relative binding ratio (IC50 of standard peptide / IC50 of test peptide) was -0.0003.

In the case of VYMIMVKCW [HER2/neu peptide, position 951, 9 amino acids], the relative binding ratio (IC50 of standard peptide / IC50 of test peptide) is 0.16.

Still in this experiment, the particulars now being: scale: ratio.
As for VYMIMVKCWMI [HER2/neu peptide, position 951, 11 amino acids], the relative binding ratio was determined as 1.8.

In the case of WMALESIL [HER2/neu peptide, position 888, 8 amino acids], the relative binding ratio was -0.0003.

For VYMIMVKCW [HER2/neu peptide, position 951, 9 amino acids], the relative binding ratio was 0.16.

Another experiment addresses HLA-A*2401 (human). The experiment is described as follows: inhibition of 125I probe peptide binding to purified HLA; IC50 standard/IC50 test.
Conditions: not given
With LMPYGCLL [HER2/neu 800-807], the relative binding ratio was found to be 0.0076.

Consider EFAGCKKI [HER2/neu 363-370], for which the relative binding ratio was -0.0003.

In the case of AYSLTLQGL [HER2/neu 440-448], the relative binding ratio worked out at 0.13.

Turning to AFGTVYKGI [HER2/neu 730-738], the relative binding ratio is 0.0002.

With AYSLTLQGLGI [HER2/neu 440-450], the relative binding ratio worked out at 0.023.

On to LFRNPHQALL [HER2/neu 485-494], for which the relative binding ratio turned out to be 0.0014.

Take CYQDTILW [HER2/neu 162-169]: the relative binding ratio worked out at 0.012.

As for VFETLEEI [HER2/neu 399-406], the relative binding ratio is -0.0003.

As for CYQDTILWKDI [HER2/neu 162-172], the relative binding ratio was 0.0016.

As to PMCKGSRCW [HER2/neu 197-205], the relative binding ratio is 0.0011.

Consider RMARDPQRF [HER2/neu 978-986], for which the relative binding ratio turned out to be 0.0032.

Turning to IWIPDGENVKI [HER2/neu 738-748], the relative binding ratio was 0.0027.

With SYLEDVRL [HER2/neu 834-841], the relative binding ratio turned out to be 0.0059.

Consider PYDGIPAREI [HER2/neu 922-931], for which the relative binding ratio came to 0.0005.

Take RYSEDPTVPL [HER2/neu 1111-1120]: the relative binding ratio amounted to 0.012.

DFGLARLL [HER2/neu 863-870]: the relative binding ratio came to 0.0005.

For the molecule EYLVPQQGFF [HER2/neu 1022-1031], the relative binding ratio turned out to be 0.012.

EYHADGGKVPI [HER2/neu 876-886]: the relative binding ratio is -0.0003.

Take KYTMRRLL [HER2/neu 684-691]: the relative binding ratio stood at 0.0024.

Take SWLGLRSLREL [HER2/neu 451-461]: the relative binding ratio amounted to 0.0036.

For the molecule GMGAAKGL [HER2/neu 1091-1098], the relative binding ratio was -0.0003.

With HFNHSGICEL [HER2/neu 257-266], the relative binding ratio turned out to be 0.0002.

On to IFGSLAFL [HER2/neu 370-377], for which the relative binding ratio stood at 0.012.

For the molecule TMRRLLQETEL [HER2/neu 686-696], the relative binding ratio was -0.0003.

Take RWGLLLAL [HER2/neu 8-15]: the relative binding ratio stood at 0.025.

In the case of GYLYISAW [HER2/neu 408-415], the relative binding ratio was determined as 0.0044.

For CFVHTVPWDQL [HER2/neu 475-485], the relative binding ratio was 0.0003.

For DFGLARLLDI [HER2/neu 863-872], the relative binding ratio stood at 0.0002.

As to RFVVIQNEDL [HER2/neu 985-994], the relative binding ratio was 0.0002.

For the molecule TYLPTNASL [HER2/neu 63-71], the relative binding ratio amounted to 0.038.

For KWMALESIL [HER2/neu 887-895], the relative binding ratio is 0.015.

For CYGLGMEHL [HER2/neu 342-350], the relative binding ratio was 0.018.

For AWPDSLPDL [HER2/neu 414-422], the relative binding ratio was determined as 0.0041.

As to AFDNLYYW [HER2/neu 1216-1223], the relative binding ratio amounted to 0.0039.

For LFRNPHQAL [HER2/neu 485-493], the relative binding ratio came to 0.0002.

VWSYGVTVW [HER2/neu 905-913]: the relative binding ratio was found to be 0.08.

As to IMVKCWMI [HER2/neu 954-961], the relative binding ratio came to 0.021.

VWSYGVTVWEL [HER2/neu 905-915]: the relative binding ratio is 0.092.

Turning to RFTHQSDVW [HER2/neu 898-906], the relative binding ratio stood at 0.011.

Regarding LFEDNYAL [HER2/neu 107-114], the relative binding ratio was determined as 0.0006.

On to IFHKNNQL [HER2/neu 172-179], for which the relative binding ratio was -0.0003.

As for AFGTVYKGIW [HER2/neu 730-739], the relative binding ratio is 0.001.

With RWGLLLALL [HER2/neu 8-16], the relative binding ratio is 1.3.

With VFQNLQVI [HER2/neu 424-431], the relative binding ratio was -0.0003.

Consider SMPNPEGRYTF [HER2/neu 281-291], for which the relative binding ratio came to 0.018.

As to CFVHTVPW [HER2/neu 475-482], the relative binding ratio was found to be 0.019.

In the case of EFAGCKKIF [HER2/neu 363-371], the relative binding ratio was found to be 0.0003.

For AFSPAFDNL [HER2/neu 1212-1220], the relative binding ratio came to 0.0011.

LFEDNYALAVL [HER2/neu 107-117]: the relative binding ratio worked out at 0.0006.

Take AFGTVYKGIWI [HER2/neu 730-740]: the relative binding ratio was found to be 0.0008.

Turning to EYVNARHCL [HER2/neu 553-561], the relative binding ratio was 0.0061.

Take SYMPIWKF [HER2/neu 609-616]: the relative binding ratio is 0.32.

Regarding EYLVPQQGF [HER2/neu 1022-1030], the relative binding ratio was found to be 0.0014.

As to GMGAAKGLQSL [HER2/neu 1091-1101], the relative binding ratio is -0.0003.

Consider RFRELVSEF [HER2/neu 968-976], for which the relative binding ratio turned out to be 0.018.

Take LYISAWPDSL [HER2/neu 410-419]: the relative binding ratio came to 0.084.

With KWMALESI [HER2/neu 887-894], the relative binding ratio was found to be 0.008.

On to SYGVTVWEL [HER2/neu 907-915], for which the relative binding ratio came out at 0.12.

For SWLGLRSLR [HER2/neu 451-459], the relative binding ratio was -0.0003.

For CMQIAKGMSYL [HER2/neu 826-836], the relative binding ratio is -0.0003.

Turning to TFGAKPYDGI [HER2/neu 917-926], the relative binding ratio came out at 0.0002.

PYVSRLLGI [HER2/neu 780-788]: the relative binding ratio amounted to 0.17.

For the molecule TYLPTNASLSF [HER2/neu 63-73], the relative binding ratio was determined as 8.9.
